Tests used:
[1] = Aggregation of immunoconjugates by analytical size exclusion chromatography; assay type: physicochemical; details: conjugate with trastuzumab (TBS); Superdex 200 5/150 GL run in PBS
Experimental: Aggregation was measured by analytical size exclusion chromatography (Superdex 200 5/150 GL run in PBS). It was observed that the extent of aggregation depends on the Linker-Payload and the DAR. […] Table 4 also indicates whether the linking group for each conjugate is stable or cleavable.

[2] = Average drug loading (DAR, drug to antibody ratio) from LC/MS of reduced, deglycosylated conjugates; details: conjugate with trastuzumab (TBS); average number of payload molecules per antibody
Text: The immunoconjugates prepared as described above were characterized by LC/MS, as illustrated in FIG. 1 for one immunoconjugate. […] The conjugates were characterized in terms of average drug loading for a sample (DAR, drug to antibody ratio) and aggregation (expressed in %).
The DAR value is extrapolated from LC-MS data for reduced and deglycosylated samples. […] HPLC separates the antibody into light and heavy chains, and separates the heavy chain (HC) and light chain (LC) according to the number of Linker-Payload groups per chain. Mass spectral data enables identification of the component species in the mixture, e.g., LC, LC+1, LC+2, HC, HC+1, HC+2, etc. From the average loading on the LC and HC chains, the average drug to antibody ratio (DAR) can be calculated for an ADC (see FIG. 1B). The DAR for a given conjugate sample represents the average number of drug (payload) molecules attached to a tetrameric antibody containing two light chains and two heavy chains.

CC(C)(C)[C@H](c1nc(-c2cc(F)ccc2F)cn1Cc1ccccc1)N(CC[C@H](N)CF)C(=O)CN [Compound 1] showed an Aggregation % [1] of 75.8% and a DAR [2] of 5.

CC(C)(C)[C@H](c1nc(-c2cc(F)ccc2F)cn1Cc1ccccc1)N(CC[C@H](N)CF)C(=O)CO [Compound 2] gave an Aggregation % [1] of 43.8% and a DAR [2] of 4.2.

C[C@@H]1CN(C(=O)N(CCCN)[C@@H](c2nc(-c3cc(F)ccc3F)nn2Cc2ccccc2)C(C)(C)C)C[C@H](C)O1 [Compound 3] gave an Aggregation % [1] of 52.5% and a DAR [2] of 5.4.

Work on CNC(=O)N(CC[C@H]1COCCN1)[C@@H](c1nc(-c2cc(F)ccc2F)cn1Cc1ccccc1)C(C)(C)C [Compound 4] yielded an Aggregation % [1] of 72.9% and a DAR [2] of 4.8.

With CC(C)(C)[C@H](c1nc(-c2cc(F)ccc2F)cn1Cc1ccccc1)N(CC[C@H]1COCCN1)C(=O)CO [Compound 5] the Aggregation % [1] was 48.7% and the DAR [2] was 5.4.

In the case of CC(C)(C)[C@H](c1nc(-c2cc(F)ccc2F)cn1Cc1ccccc1)N(CC[C@@H]1COCCN1)C(=O)CO [Compound 6], the Aggregation % [1] was 67.2% and the DAR [2] was 3.

In the case of C[C@H](O)C(=O)N(CCCN)[C@@H](c1nc(-c2cc(F)ccc2F)nn1Cc1ccccc1)C(C)(C)C [Compound 7], the Aggregation % [1] was 44.4% and the DAR [2] was 2.7.

In the case of C[C@H](O)C(=O)N(CC[C@@H](N)CF)[C@@H](c1nc(-c2cc(F)ccc2F)nn1Cc1ccccc1)C(C)(C)C [Compound 8], the Aggregation % [1] was 1.4% and the DAR [2] was 3.2.

In the case of CSCCC(=O)N(C[C@@H]1CNC[C@@H]1F)[C@@H](c1nc(-c2cc(F)ccc2F)cn1Cc1cccc(F)c1)C(C)(C)C [Compound 9], the Aggregation % [1] was 84.9% and the DAR [2] was 6.

With CC(C)(C)[C@H](c1nc(-c2cc(F)ccc2F)nn1Cc1ccccc1)N(CC[C@H](N)CF)C(=O)N1CCSCC1 [Compound 10] the Aggregation % [1] was 47% and the DAR [2] was 5.

In the case of C[C@H](O)C(=O)N(CC[C@H](N)CF)[C@@H](c1nc(-c2cc(F)ccc2F)cn1CC1CCOCC1)C(C)(C)C [Compound 11], the Aggregation % [1] was 4% and the DAR [2] was 4.

Work on C[C@H](O)C(=O)N(C[C@@H]1CNC[C@@H]1F)[C@@H](c1nc(-c2cc(F)ccc2F)cn1Cc1ccccc1)C1CCOCC1 [Compound 12] yielded an Aggregation % [1] of 4.7% and a DAR [2] of 5.

Compound COC(C)(C)[C@H](c1nc(-c2cc(Cl)ccc2F)cn1Cc1cccc(F)c1)N(C[C@@H]1CN[C@H](CF)C1)C(=O)[C@@H]1CCCO1 [Compound 13] has an Aggregation % [1] of 0.7% and a DAR [2] of 5.8.

In the case of C[C@H](O)C(=O)N(C[C@@H]1CNC[C@@H]1F)[C@@H](c1nc(-c2cc(F)ccc2F)cn1Cc1cccc(F)c1)C(C)(C)C [Compound 14], the Aggregation % [1] was 1.5% and the DAR [2] was 2.8.

O=C(CCS)N(C[C@@H]1CNC[C@@H]1F)[C@@H](c1nc(-c2cc(F)ccc2F)cn1Cc1ccccc1)C1CCOCC1 [Compound 15] gave an Aggregation % [1] of 3.5% and a DAR [2] of 3.7.

Work on CC(C)(C)[C@H](c1nc(-c2cc(F)ccc2F)cn1Cc1cccc(F)c1)N(C[C@@H]1CNC[C@@H]1F)C(=O)CSCCN [Compound 16] yielded an Aggregation % [1] of 20.4% and a DAR [2] of 7.4.

C[C@@H](CO)NC(=O)N(C[C@@H]1CNC[C@@H]1F)[C@@H](c1nc(-c2cc(F)ccc2F)cn1Cc1ccccc1)C1CCOCC1 [Compound 17] showed an Aggregation % [1] of 55% and a DAR [2] of 5.8.

Work on NCCSCC(=O)N(C[C@@H]1CNC[C@@H]1F)[C@@H](c1nc(-c2cc(F)ccc2F)cn1Cc1ccccc1)C1CCOCC1 [Compound 18] yielded an Aggregation % [1] of 58.4% and a DAR [2] of 3.

With C[C@@H](CN)NC(=O)N(C[C@@H]1CNC[C@@H]1F)[C@@H](c1nc(-c2cc(F)ccc2F)cn1Cc1ccccc1)C1CCOCC1 [Compound 19] the Aggregation % [1] was 74.6% and the DAR [2] was 4.7.

Work on C[C@H](O)C(=O)N(CCCN)[C@@H](c1nc(-c2cc(F)ccc2F)cn1Cc1ccccc1)C(C)(C)C [Compound 20] yielded an Aggregation % [1] of 63.5% and a DAR [2] of 5.2.

Work on CC(C)(C)[C@H](c1nc(-c2cc(F)ccc2F)cn1Cc1ccccc1)N(C[C@@H](F)CN)C(=O)N1CCN(S(C)(=O)=O)CC1 [Compound 21] yielded an Aggregation % [1] of 39.7% and a DAR [2] of 4.7.

In the case of CC(C)(C)[C@H](c1nc(-c2cc(F)ccc2F)cn1Cc1ccccc1)N(CC[C@H](N)CF)C(=O)NO [Compound 22], the Aggregation % [1] was 84.5% and the DAR [2] was 6.

With N[C@H](CF)CCN(C(=O)CO)[C@@H](c1nc(-c2cc(F)ccc2F)cn1Cc1ccccc1)C1CCOCC1 [Compound 23] the Aggregation % [1] was 66.8% and the DAR [2] was 3.1.

For C[C@H](O)C(=O)N(CC[C@H](N)CF)[C@H](c1nc(-c2cc(F)ccc2F)cn1Cc1ccccc1)C1CCS(=O)(=O)CC1 [Compound 24], the Aggregation % [1] was 54.2% and the DAR [2] was 1.2.

O=C(CI)N(C[C@@H]1CNC[C@@H]1F)[C@@H](c1nc(-c2cc(F)ccc2F)cn1Cc1ccccc1)C1CCOCC1 [Compound 25] showed an Aggregation % [1] of 60.8% and a DAR [2] of 2.2.

C[C@@H]1CN(C(=O)N(C[C@@H]2CNC[C@@H]2F)[C@@H](c2nc(-c3cc(F)ccc3F)nn2Cc2cccc(F)c2)C(C)(C)C)C[C@H](C)O1 [Compound 26] showed an Aggregation % [1] of 33.5% and a DAR [2] of 2.6.

Work on CNC(=O)N(CC[C@@H](N)CF)[C@@H](c1nc(-c2cc(F)ccc2F)cn1Cc1ccccc1)C(C)(C)C [Compound 27] yielded an Aggregation % [1] of 12.1% and a DAR [2] of 3.4.

For CC(C)(C)[C@H](c1nc(-c2cc(F)ccc2F)nn1Cc1ccccc1)N(CCCN)C(=O)N1CCC[C@H]1CO [Compound 28], the Aggregation % [1] was 63.6% and the DAR [2] was 3.6.

For C[C@H](O)C(=O)N(CC[C@@H](N)CF)[C@@H](c1nc(-c2cc(F)ccc2F)cn1Cc1ccccc1)C(C)(C)C [Compound 29], the Aggregation % [1] was 2.9% and the DAR [2] was 2.8.

With CC(C)(C)[C@H](c1nc(-c2cc(F)ccc2F)cn1Cc1ccccc1)N(CCC1(N)CC1)C(=O)[C@@H]1CCCO1 [Compound 30] the Aggregation % [1] was 2.5% and the DAR [2] was 3.9.

For CC(C)(C)OC(=O)N1C[C@@H](CN(C(=O)CI)[C@@H](c2nc(-c3cc(F)ccc3F)cn2Cc2cccc(F)c2)C(C)(C)C)[C@@H](F)C1 [Compound 31], the Aggregation % [1] was 10.6% and the DAR [2] was 5.8.

C[C@H](O)C(=O)N(C[C@H]1CCNC1)[C@@H](c1nc(-c2cc(F)ccc2F)cn1Cc1ccccc1)C1CCOCC1 [Compound 32] showed an Aggregation % [1] of 1.4% and a DAR [2] of 5.2.

For CC(C)(C)[C@@H](NC[C@@H]1CNC[C@@H]1F)c1nc(-c2cc(F)ccc2F)nn1Cc1cccc(F)c1 [Compound 33], the Aggregation % [1] was 29.8% and the DAR [2] was 6.3.

C[C@H](O)C(=O)N(CC[C@H](N)CF)[C@@H](c1nc(-c2cc(F)ccc2F)cn1CC1(C)COC1)C(C)(C)C [Compound 34] showed an Aggregation % [1] of 50.5% and a DAR [2] of 4.4.

Compound C[C@H](O)C(=O)N(CC[C@@H](C)N)[C@@H](c1nc(-c2cc(F)ccc2F)cn1Cc1ccccc1)C(C)(C)C [Compound 35] has an Aggregation % [1] of 44.3% and a DAR [2] of 3.

In the case of CC(C)(C)[C@H](c1nc(-c2cc(F)ccc2F)cn1Cc1ccccc1)N(CC[C@H]1COCCN1)C(=O)c1cccnc1 [Compound 36], the Aggregation % [1] was 40% and the DAR [2] was 2.6.

In the case of C[C@H](O)C(=O)N(CC[C@H](N)CF)[C@@H](c1nc(-c2cc(F)ccc2F)cn1Cc1ccccc1)C1CCS(=O)(=O)CC1 [Compound 37], the Aggregation % [1] was 68% and the DAR [2] was 5.6.

C[C@H](O)C(=O)N(C[C@@H]1CNC[C@@H]1F)[C@@H](c1nc(-c2cc(F)ccc2F)cn1Cc1ccccc1)C1CCS(=O)(=O)CC1 [Compound 38] showed an Aggregation % [1] of 67.2% and a DAR [2] of 5.8.

CSCCC(=O)N(C[C@@H]1CNC[C@@H]1F)[C@@H](c1nc(-c2cc(F)ccc2F)cn1Cc1ccccc1)C1CCOCC1 [Compound 39] showed an Aggregation % [1] of 68.5% and a DAR [2] of 3.2.

In the case of CNC(=O)N(C[C@@H]1CNC[C@@H]1F)[C@@H](c1nc(-c2cc(F)ccc2F)cn1Cc1cccc(F)c1)C(C)(C)C [Compound 40], the Aggregation % [1] was 9.3% and the DAR [2] was 4.

Work on COC(=O)N(C[C@@H](F)CN)[C@@H](c1nc(-c2cc(F)ccc2F)cn1Cc1ccccc1)C(C)(C)C [Compound 41] yielded an Aggregation % [1] of 23.8% and a DAR [2] of 4.5.

With CC(C)(C)[C@H](c1nc(-c2cc(F)ccc2F)cn1Cc1ccccc1)N(CC[C@H](N)CF)C(=O)N1CCN(S(C)(=O)=O)CC1 [Compound 42] the Aggregation % [1] was 2.4% and the DAR [2] was 6.

Work on CC(C)(C)[C@H](c1nc(-c2cc(F)ccc2F)nn1Cc1ccccc1)N(CC[C@@H](N)CF)C(=O)N1CCSCC1 [Compound 43] yielded an Aggregation % [1] of 7.7% and a DAR [2] of 6.1.

Compound CC(C)(C)[C@H](c1nc(-c2cc(F)ccc2F)nn1Cc1ccccc1)N(CCCN)C(=O)N1CCN(S(C)(=O)=O)CC1 [Compound 44] has an Aggregation % [1] of 41% and a DAR [2] of 4.8.

Work on CC(C)(C)[C@@H](NC(=O)c1csc(CN)n1)c1nc(-c2cc(F)ccc2F)cn1Cc1ccccc1 [Compound 45] yielded an Aggregation % [1] of 22% and a DAR [2] of 4.8.

With C[C@H](O)C(=O)N(CC[C@H](N)CF)[C@@H](c1nc(-c2cc(F)ccc2F)cn1Cc1ccccc1)C1CCOCC1 [Compound 46] the Aggregation % [1] was 74.1% and the DAR [2] was 4.7.

C[C@H](O)C(=O)N(C[C@@H]1CNC[C@@H]1F)[C@H](c1nc(-c2cc(F)ccc2F)cn1Cc1ccccc1)C1CCS(=O)(=O)CC1 [Compound 47] showed an Aggregation % [1] of 65.2% and a DAR [2] of 5.1.

From US9498540B2, “Cell proliferation inhibitors and conjugates thereof” (NOVARTIS AG, priority 2013, dated 2016)
